What is called IC50 is the concentration that inhibits the measured activity by half.

Consider six molecules from patent US20140087995A1 (published 2014).

Numbered stars: 1 amine (or outer) side, 2 acyl side, 3 side chain; on linkers, the order of the positions; unused ones are H or OH. Bridge positions count the residues as written; N and C are the ends. Side chains are listed from the residue outwards. Ends that are not written are not given here. * marks the point of attachment. C20 diacid = O=C(O)CCCCCCCCCCCCCCCCCCC(=O)*; γGlu = O=C(O)[C@H](CCC(=O)[*:2])N[*:1]

Test [1] concerns the target T1, human calcitonin receptor (human, UniProt P30988 25-474).
T1 construct: whole, on cells; also called hCTR; hCT
T1 sequence (looked up): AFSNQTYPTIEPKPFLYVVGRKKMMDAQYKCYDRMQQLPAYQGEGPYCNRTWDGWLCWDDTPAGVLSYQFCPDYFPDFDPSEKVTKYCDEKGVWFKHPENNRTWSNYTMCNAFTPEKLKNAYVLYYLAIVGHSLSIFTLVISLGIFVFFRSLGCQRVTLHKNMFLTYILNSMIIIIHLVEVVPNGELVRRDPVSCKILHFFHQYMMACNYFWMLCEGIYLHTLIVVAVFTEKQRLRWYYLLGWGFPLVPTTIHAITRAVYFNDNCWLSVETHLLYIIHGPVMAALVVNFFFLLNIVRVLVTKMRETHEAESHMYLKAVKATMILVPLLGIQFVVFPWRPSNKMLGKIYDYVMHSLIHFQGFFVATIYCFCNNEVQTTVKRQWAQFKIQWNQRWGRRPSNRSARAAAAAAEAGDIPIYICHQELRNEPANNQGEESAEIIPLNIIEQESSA
In words: ratio of IC50 at hCTR to IC50 at the human amylin receptor (reference). In short, it runs like this:
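IC₅₀ values were derived by one-site competition analysis of SPA counts. Cell membranes (35 ng/μL) with SPA beads were incubated with test compounds for 120 min at 25° C in Hepes buffer, pH 7.4, containing CaCl2, MgCl₂, OA and Tween20.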

Test [2] has as its target T1, human calcitonin receptor. Nature of the test: SPA competition binding, membranes with human calcitonin receptor, displacement of 125I-calcitonin (Assay VII). Put shortly:
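BHK hCTR membranes 35 ng/μL + SPA beads 0.05 mg/well; buffer 50 mM Hepes pH 7.4, 1 mM CaCl2, 5 mM MgCl₂, 0.1% OA, 0.02% Tween20. 120 min, 25° C., shaking. Scintillation count; IC50 by one-site binding competition.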
(In general: Loss of bound radioactivity is the signal in a displacement assay; it reports binding, not function.)

B1: N^ε1-[(4S)-4-carboxy-4-(19-carboxynonadecanoylamino)butanoyl]-[Arg17,Pro21,Pro27]-h-amylin (peptide)
peptide: K([γGlu-C20 diacid])CNTATCATQRLANFLRHSSPNFGAIPSSTNVGSNTY-NH2
modifications: disulfide 2-7; N-terminus assumed
SMILES: CC[C@H](C)[C@H](NC(=O)[C@H](C)NC(=O)CNC(=O)[C@H](Cc1ccccc1)NC(=O)[C@H](CC(N)=O)NC(=O)[C@@H]1CCCN1C(=O)[C@H](CO)NC(=O)[C@H](CO)NC(=O)[C@H](Cc1c[nH]cn1)NC(=O)[C@H](CCCNC(=N)N)NC(=O)[C@H](CC(C)C)NC(=O)[C@H](Cc1ccccc1)NC(=O)[C@H](CC(N)=O)NC(=O)[C@H](C)NC(=O)[C@H](CC(C)C)NC(=O)[C@H](CCCNC(=N)N)NC(=O)[C@H](CCC(N)=O)NC(=O)[C@@H](NC(=O)[C@H](C)NC(=O)[C@@H]1CSSC[C@H](NC(=O)[C@@H](N)CCCCNC(=O)CC[C@H](NC(=O)CCCCCCCCCCCCCCCCCCC(=O)O)C(=O)O)C(=O)N[C@@H](CC(N)=O)C(=O)N[C@@H]([C@@H](C)O)C(=O)N[C@@H](C)C(=O)N[C@@H]([C@@H](C)O)C(=O)N1)[C@@H](C)O)C(=O)N1CCC[C@H]1C(=O)N[C@@H](CO)C(=O)N[C@@H](CO)C(=O)N[C@H](C(=O)N[C@@H](CC(N)=O)C(=O)N[C@H](C(=O)NCC(=O)N[C@@H](CO)C(=O)N[C@@H](CC(N)=O)C(=O)N[C@H](C(=O)N[C@@H](Cc1ccc(O)cc1)C(N)=O)[C@@H](C)O)C(C)C)[C@@H](C)O
notes: also called compound 48
With B1, the “Ratio hCT/hAmylin binding” value in test [1] was determined as 69.7. For the same molecule, the IC50 in test [2] came out at 30.9 nM.

B2: N^ε1-[(4S)-4-carboxy-4-[[(4S)-4-carboxy-4-(19-carboxynonadecanoylamino)butanoyl]amino]butanoyl]-[Asp14,Arg17,Pro22,Pro26,Asp35]-h-amylin (peptide)
peptide: K([γGlu-γGlu-C20 diacid])CNTATCATQRLADFLRHSSNPFGAPLSSTNVGSDTY-NH2
modifications: disulfide 2-7; N-terminus assumed
SMILES: CC(C)C[C@H](NC(=O)[C@H](CCCNC(=N)N)NC(=O)[C@H](CCC(N)=O)NC(=O)[C@@H](NC(=O)[C@H](C)NC(=O)[C@@H]1CSSC[C@H](NC(=O)[C@@H](N)CCCCNC(=O)CC[C@H](NC(=O)CC[C@H](NC(=O)CCCCCCCCCCCCCCCCCCC(=O)O)C(=O)O)C(=O)O)C(=O)N[C@@H](CC(N)=O)C(=O)N[C@@H]([C@@H](C)O)C(=O)N[C@@H](C)C(=O)N[C@@H]([C@@H](C)O)C(=O)N1)[C@@H](C)O)C(=O)N[C@@H](C)C(=O)N[C@@H](CC(=O)O)C(=O)N[C@@H](Cc1ccccc1)C(=O)N[C@@H](CC(C)C)C(=O)N[C@@H](CCCNC(=N)N)C(=O)N[C@@H](Cc1c[nH]cn1)C(=O)N[C@@H](CO)C(=O)N[C@@H](CO)C(=O)N[C@@H](CC(N)=O)C(=O)N1CCC[C@H]1C(=O)N[C@@H](Cc1ccccc1)C(=O)NCC(=O)N[C@@H](C)C(=O)N1CCC[C@H]1C(=O)N[C@@H](CC(C)C)C(=O)N[C@@H](CO)C(=O)N[C@@H](CO)C(=O)N[C@H](C(=O)N[C@@H](CC(N)=O)C(=O)N[C@H](C(=O)NCC(=O)N[C@@H](CO)C(=O)N[C@@H](CC(=O)O)C(=O)N[C@H](C(=O)N[C@@H](Cc1ccc(O)cc1)C(N)=O)[C@@H](C)O)C(C)C)[C@@H](C)O
notes: also called compound 3
Regarding B2, the “Ratio hCT/hAmylin binding” value in test [1] amounted to 17.3. In addition, the half-inhibitory concentration (IC50) in test [2] amounted to 19.5 nM.

B3: N^ε1-[(4S)-4-carboxy-4-[[(4S)-4-carboxy-4-(19-carboxynonadecanoylamino)butanoyl]amino]butanoyl]-[Asp14,Arg17,Pro21,Pro26,Asp35]-h-amylin (peptide)
peptide: K([γGlu-γGlu-C20 diacid])CNTATCATQRLADFLRHSSPNFGAPLSSTNVGSDTY-NH2
modifications: disulfide 2-7; N-terminus assumed
SMILES: CC(C)C[C@H](NC(=O)[C@H](CCCNC(=N)N)NC(=O)[C@H](CCC(N)=O)NC(=O)[C@@H](NC(=O)[C@H](C)NC(=O)[C@@H]1CSSC[C@H](NC(=O)[C@@H](N)CCCCNC(=O)CC[C@H](NC(=O)CC[C@H](NC(=O)CCCCCCCCCCCCCCCCCCC(=O)O)C(=O)O)C(=O)O)C(=O)N[C@@H](CC(N)=O)C(=O)N[C@@H]([C@@H](C)O)C(=O)N[C@@H](C)C(=O)N[C@@H]([C@@H](C)O)C(=O)N1)[C@@H](C)O)C(=O)N[C@@H](C)C(=O)N[C@@H](CC(=O)O)C(=O)N[C@@H](Cc1ccccc1)C(=O)N[C@@H](CC(C)C)C(=O)N[C@@H](CCCNC(=N)N)C(=O)N[C@@H](Cc1c[nH]cn1)C(=O)N[C@@H](CO)C(=O)N[C@@H](CO)C(=O)N1CCC[C@H]1C(=O)N[C@@H](CC(N)=O)C(=O)N[C@@H](Cc1ccccc1)C(=O)NCC(=O)N[C@@H](C)C(=O)N1CCC[C@H]1C(=O)N[C@@H](CC(C)C)C(=O)N[C@@H](CO)C(=O)N[C@@H](CO)C(=O)N[C@H](C(=O)N[C@@H](CC(N)=O)C(=O)N[C@H](C(=O)NCC(=O)N[C@@H](CO)C(=O)N[C@@H](CC(=O)O)C(=O)N[C@H](C(=O)N[C@@H](Cc1ccc(O)cc1)C(N)=O)[C@@H](C)O)C(C)C)[C@@H](C)O
notes: also called compound 1
With B3, the “Ratio hCT/hAmylin binding” value in test [1] is 27.6. Also, the half-maximal inhibitory concentration (IC50) in test [2] stood at 32.5 nM.

B4: N^ε1-[(4S)--4-carboxy-4-(19-carboxynonadecanoylamino)butanoyl]-[Glu14,Arg17,Pro21,Pro27,Pro37]-h-amylin (peptide)
peptide: K([γGlu-C20 diacid])CNTATCATQRLAEFLRHSSPNFGAIPSSTNVGSNTP-NH2
modifications: disulfide 2-7; N-terminus assumed
SMILES: CC[C@H](C)[C@H](NC(=O)[C@H](C)NC(=O)CNC(=O)[C@H](Cc1ccccc1)NC(=O)[C@H](CC(N)=O)NC(=O)[C@@H]1CCCN1C(=O)[C@H](CO)NC(=O)[C@H](CO)NC(=O)[C@H](Cc1c[nH]cn1)NC(=O)[C@H](CCCNC(=N)N)NC(=O)[C@H](CC(C)C)NC(=O)[C@H](Cc1ccccc1)NC(=O)[C@H](CCC(=O)O)NC(=O)[C@H](C)NC(=O)[C@H](CC(C)C)NC(=O)[C@H](CCCNC(=N)N)NC(=O)[C@H](CCC(N)=O)NC(=O)[C@@H](NC(=O)[C@H](C)NC(=O)[C@@H]1CSSC[C@H](NC(=O)[C@@H](N)CCCCNC(=O)CC[C@H](NC(=O)CCCCCCCCCCCCCCCCCCC(=O)O)C(=O)O)C(=O)N[C@@H](CC(N)=O)C(=O)N[C@@H]([C@@H](C)O)C(=O)N[C@@H](C)C(=O)N[C@@H]([C@@H](C)O)C(=O)N1)[C@@H](C)O)C(=O)N1CCC[C@H]1C(=O)N[C@@H](CO)C(=O)N[C@@H](CO)C(=O)N[C@H](C(=O)N[C@@H](CC(N)=O)C(=O)N[C@H](C(=O)NCC(=O)N[C@@H](CO)C(=O)N[C@@H](CC(N)=O)C(=O)N[C@H](C(=O)N1CCC[C@H]1C(N)=O)[C@@H](C)O)C(C)C)[C@@H](C)O
notes: also called compound 12
As to B4, in test [1], the “Ratio hCT/hAmylin binding” value was 2.5. In addition, the IC50 in test [2] was 0.353 nM.
The corresponding values for K([γGlu-γGlu-C20 diacid])CNTATCATQRLAEFLRHSSPNFGAIPSSTNVGSNTP-NH2 (disulfide 2-7 (inferred), also called compound 13) are 1.2 and 0.305 nM.

B5: N{Alpha-1}-[(4S)-4-carboxy-4-(19-carboxynonadecanoylamino)butanoyl]-[Glu14,Arg17,Pro21,Pro27,Lys34]-h-amylin (peptide)
peptide: {C20 diacid-γGlu}-KCNTATCATQRLAEFLRHSSPNFGAIPSSTNVGKNTY-NH2
modifications: disulfide 2-7
SMILES: CC[C@H](C)[C@H](NC(=O)[C@H](C)NC(=O)CNC(=O)[C@H](Cc1ccccc1)NC(=O)[C@H](CC(N)=O)NC(=O)[C@@H]1CCCN1C(=O)[C@H](CO)NC(=O)[C@H](CO)NC(=O)[C@H](Cc1c[nH]cn1)NC(=O)[C@H](CCCNC(=N)N)NC(=O)[C@H](CC(C)C)NC(=O)[C@H](Cc1ccccc1)NC(=O)[C@H](CCC(=O)O)NC(=O)[C@H](C)NC(=O)[C@H](CC(C)C)NC(=O)[C@H](CCCNC(=N)N)NC(=O)[C@H](CCC(N)=O)NC(=O)[C@@H](NC(=O)[C@H](C)NC(=O)[C@@H]1CSSC[C@H](NC(=O)[C@H](CCCCN)NC(=O)CC[C@H](NC(=O)CCCCCCCCCCCCCCCCCCC(=O)O)C(=O)O)C(=O)N[C@@H](CC(N)=O)C(=O)N[C@@H]([C@@H](C)O)C(=O)N[C@@H](C)C(=O)N[C@@H]([C@@H](C)O)C(=O)N1)[C@@H](C)O)C(=O)N1CCC[C@H]1C(=O)N[C@@H](CO)C(=O)N[C@@H](CO)C(=O)N[C@H](C(=O)N[C@@H](CC(N)=O)C(=O)N[C@H](C(=O)NCC(=O)N[C@@H](CCCCN)C(=O)N[C@@H](CC(N)=O)C(=O)N[C@H](C(=O)N[C@@H](Cc1ccc(O)cc1)C(N)=O)[C@@H](C)O)C(C)C)[C@@H](C)O
notes: also called compound 36
With B5, in test [1], the “Ratio hCT/hAmylin binding” value is 15.7. Moreover, the IC50 in test [2] is 6.3 nM.
